Measured values taken from patent publication US20220088145A1.

Key:
[1] = target: HLA-DR15 dimer (DR1501) (human); assay: peptide binding to HLA-DR dimer; EC50 ratio (<20 = high affinity, 20-100 = moderate affinity); method not described
[2] = target: HLA-DR7 dimer (DR0701) (human); assay: as above

Row | Substance | EC50 Ratio [1] | EC50 Ratio [2]
1 | E. rectale Fla1 p445-464 (peptide) | 4.5 | –
2 | R. Intest. Fla1 p408-427 (peptide) | 4.1 | 5
